Data from patent US7470668B2, “Method of use of specific natriuretic peptide receptor c ligands, transgenic non-human mammals expressing specific natriuretic peptide receptor c antagonists and cells thereof” (Enobia Pharma Inc., priority 2005, dated 2008).

Molecular target: T1, human GC-B (Homo sapiens, UniProt P20594)
T1 construct: expressed in transfected cells; host or cells: HEK293, transient, pCDNA1.1 (CMV promoter)
T1 sequence (P20594 23-1047): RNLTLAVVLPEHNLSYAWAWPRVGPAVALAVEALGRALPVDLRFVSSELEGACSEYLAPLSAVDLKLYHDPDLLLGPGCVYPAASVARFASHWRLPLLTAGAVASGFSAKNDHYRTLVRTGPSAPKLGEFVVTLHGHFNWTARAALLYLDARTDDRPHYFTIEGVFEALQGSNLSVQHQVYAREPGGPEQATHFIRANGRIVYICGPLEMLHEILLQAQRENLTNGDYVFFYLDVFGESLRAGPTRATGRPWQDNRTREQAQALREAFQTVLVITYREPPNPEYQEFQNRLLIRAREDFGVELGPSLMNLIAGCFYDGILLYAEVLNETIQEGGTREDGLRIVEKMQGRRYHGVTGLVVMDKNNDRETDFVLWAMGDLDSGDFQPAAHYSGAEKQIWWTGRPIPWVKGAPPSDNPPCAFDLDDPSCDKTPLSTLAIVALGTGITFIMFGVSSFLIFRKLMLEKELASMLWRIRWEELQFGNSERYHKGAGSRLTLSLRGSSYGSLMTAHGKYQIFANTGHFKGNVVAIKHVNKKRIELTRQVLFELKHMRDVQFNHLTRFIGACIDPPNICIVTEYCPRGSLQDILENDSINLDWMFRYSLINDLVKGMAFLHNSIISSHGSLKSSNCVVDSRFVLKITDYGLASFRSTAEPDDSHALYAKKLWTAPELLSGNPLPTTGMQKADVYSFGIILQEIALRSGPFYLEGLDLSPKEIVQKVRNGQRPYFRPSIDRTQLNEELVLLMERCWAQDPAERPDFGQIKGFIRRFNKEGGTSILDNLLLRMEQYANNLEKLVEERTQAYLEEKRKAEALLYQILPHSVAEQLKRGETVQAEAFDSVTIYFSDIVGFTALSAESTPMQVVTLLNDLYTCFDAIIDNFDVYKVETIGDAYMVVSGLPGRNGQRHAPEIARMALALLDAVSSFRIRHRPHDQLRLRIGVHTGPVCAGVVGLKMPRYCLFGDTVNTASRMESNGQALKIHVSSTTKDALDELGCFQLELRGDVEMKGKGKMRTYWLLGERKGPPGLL
Assay: Intracellular cGMP in GC-B transfected HEK293 cells
Format: cell-based
Conditions: 10 nM peptide, 15 min

B1: rhOstn[27-133]: N-terminal 6 histidine-tagged recombinant human Ostn amino acids 27-133 produced in E.coli, SEQ ID NO: 57 (protein)
chain: SVDVTTTEAFDSGVIDVQSTPTVREEKSATDLTAKLLLLDELVSLENDVIETKKKRSFSGFGSPLDRLSAGSVDHKGKQRKVVDHPKRRFGIPMDRIGRNRLSNSRG
modifications: N-terminal His6 tag; recombinant mature osteocrin
intracellular cGMP response via GC-B: failed to activate
